This is an account of results in article PMC9953421, “Regulation of CRISPR-Associated Genes by Rv1776c (CasR) in Mycobacterium tuberculosis”.

The target of the data set is T1, CasR (Rv1776c) (UniProt O33179 1-186).
T1 sequence: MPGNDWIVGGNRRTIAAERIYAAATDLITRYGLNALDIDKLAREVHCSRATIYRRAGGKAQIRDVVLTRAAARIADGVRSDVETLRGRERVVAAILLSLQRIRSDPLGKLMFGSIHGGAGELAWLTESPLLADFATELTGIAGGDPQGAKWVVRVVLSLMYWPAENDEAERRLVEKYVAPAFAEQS
Nature of the data set: EMSA; 0-2 uM protein. Conditions: protein: recombinant; tags: N-terminal His (pET28a); chain copies: 2. In general terms: Mobility shift assays separate free from complexed probe on a gel.

B1: casRp4 (dsDNA)
DNA 1: AATAGCGCCCCGTTGTTAGACTAGATGA
DNA 2: TCATCTAGTCTAACAACGGGGCGCTATT
Consider B1, for which the binding result was “no binding”.

B2: csm6p2 (dsDNA)
DNA 1: CGATCAGGAAAACAATTAGACGCAGGGGC
DNA 2: GCCCCTGCGTCTAATTGTTTTCCTGATCG
Take B2: the binding result is on record as “no binding”.
